Results reported in US20190343963A1 (published 2019).
Substitutions are numbered along the chain they refer to. In names and notes the source's numbering stands.

B1: 111 7g11 Alb22 NQ (protein)
chain: ATYNGCSSSEQSALAAAASAAQSYVAESLSYLQTHTAATPRYTTWFGSYISSRHSTVLQHYTDMNSNDFSSYSFDCTCTAAGTFAYVYPNRFGTVYLCGAFWQAPTTGTDSQAGTLVHESSHFTRNGGTDDYAYGQAAAQSLATMNPDQAVMNANNHQYFSENNPAQSAAAGGGGSGDLGRRLLEAARAGQDDEVRILMANGADVNAADYFSHTPLHLAARNGHLEIVEVLLQAGADVNASDFAGKTPLHLAANDGHLEIVEVLLQHGADVNAQDIFGRTPADIAADAGHEDIAEVLQRLNGGGGSGGGGSGGGGSGGGGSGGGGSGGGGSGGGSSGLDRRLLEAARAGQDDEVRILMANGADVNATDEFDSTPLHLAARHGHLEIVEVLLQYGADVNAADFIGDTPLHLAAYRGHLEIVEVLLQYGVDVNADDHGDTPLHLAASTGHLEIVEVLLQHGADVNAQDIFGRTAFDISIDNGNEDLAEILQRAA
B2: 111 7g11 Alb22 (protein)
chain: TYNGCSSSEQSALAAAASAAQSYVAESLSYLQTHTAATPRYTTWFGSYISSRHSTVLQHYTDMNSNDFSSYSFDCTCTAAGTFAYVYPNRFGTVYLCGAFWQAPTTGTDSQAGTLVHESSHFTRNGGTDDYAYGQAAAQSLATMNPDQAVMNADNHEYFSENNPAQSAAAGGGGSGDLGRRLLEAARAGQDDEVRILMANGADVNAADYFSHTPLHLAARNGHLEIVEVLLQAGADVNASDFAGKTPLHLAANDGHLEIVEVLLQHGADVNAQDIFGRTPADIAADAGHEDIAEVLQRLNGGGGSGGGGSGGGGSGGGGSGGGGSGGGGSGGGSSGLDRRLLEAARAGQDDEVRILMANGADVNATDEFDSTPLHLAARHGHLEIVEVLLQYGADVNAADFIGDTPLHLAAYRGHLEIVEVLLQYGVDVNADDHGDTPLHLAASTGHLEIVEVLLQHGADVNAQDIFGRTAFDISIDNGNEDLAEILQRAA
B3: SH111 D154N ΔK (protein)
chain: SSYSFDCTCTAAGTFAYVYPNRFGTVYLCGAFWQAPTTGTDSQAGTLVHESSHFTRNGGTDDYAYGQAAAQSLATMNPDQAVMNANNHEYFSENNPAQSAAAGGGGSGDLGRRLLEAARAGQDDEVRILMANGADVNAADYFSHTPLHLAARNGHLEIVEVLLQYGADVNASDFAGRTPLHLAANDGHLEIVEVLLQHGADVNAQDIFGRTPADIAADNGHEDIAEVLQRAAGGGGSGGGGSGGGGSGGGGSGGGGSGGGGSGGGSSALDRRLLEAARAGQDDEVRILMANGADVNARDSYGSTPLHLAAREGHLEIVEVLLQYGADVNAADFIGDTPLHLAAYRGHLEIVEVLLQYGADVNASDITGETPLHLAAQIGHLEIVEVLLQHGADVNAQDIFGRTAFDISIDNGNEDLAEILQRAA
B4: IL-13 DARPin ΔK (protein)
chain: ALDRRLLEAARAGQDDEVRILMANGADVNARDSYGSTPLHLAAREGHLEIVEVLLQYGADVNAADFIGDTPLHLAAYRGHLEIVEVLLQYGADVNASDITGETPLHLAAQIGHLEIVEVLLQHGADVNAQDIFGRTAFDISIDNGNEDLAEILQRAA
B5: SH111 wt ΔK (protein)
chain: TYNGCSSSEQSALAAAASAAQSYVAESLSYLQTHTAATPRYTTWFGSYISSRHSTVLQHYTDMNSNDFSSYSFDCTCTAAGTFAYVYPNRFGTVYLCGAFWQAPTTGTDSQAGTLVHESSHFTRNGGTDDYAYGQAAAQSLATMNPDQAVMNADNHEYFSENNPAQSAAAGGGGSGDLGRRLLEAARAGQDDEVRILMANGADVNAADYFSHTPLHLAARNGHLEIVEVLLQYGADVNASDFAGRTPLHLAANDGHLEIVEVLLQHGADVNAQDIFGRTPADIAADNGHEDIAEVLQRAAGGGGSGGGGSGGGGSGGGGSGGGGSGGGGSGGGSSALDRRLLEAARAGQDDEVRILMANGADVNARDSYGSTPLHLAAREGHLEIVEVLLQYGADVNAADFIGDTPLHLAAYRGHLEIVEVLLQYGADVNASDITGETPLHLAAQIGHLEIVEVLLQHGADVNAQDIFGRTAFDISIDNGNEDLAEILQRAA
B6: SH111 E157Q ΔK (protein)
chain: B5 chain with E157Q
B7: SH111 NQ ΔK (protein)
chain: B5 chain with D154N, E157Q

target: T1, FLAG-tagged human IL-13 (human, UniProt P35225 35-146); assay: competition ELISA; 24 h incubation
T1 sequence (P35225 35-146): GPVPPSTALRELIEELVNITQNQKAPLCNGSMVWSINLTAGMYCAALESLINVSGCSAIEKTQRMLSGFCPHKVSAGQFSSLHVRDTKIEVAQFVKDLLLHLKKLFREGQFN

EC50 [nM]	Binder
0.0069	B1
0.0036	B2

target: T1, FLAG-tagged human IL-13; assay: competition ELISA; 24 h incubation; remark: another data set of the same source

EC50 [nM]	Binder
0.015	B3
21.2	B4
0.002	B5
0.003	B6
0.027	B7

target: T1, FLAG-tagged human IL-13; assay: competition ELISA; 1 h incubation

EC50 [nM]	Binder
0.075	B1
0.019	B2

target: T1, FLAG-tagged human IL-13; assay: competition ELISA; 1 h incubation; remark: another data set of the same source

EC50 [nM]	Binder
0.802	B3
13.7	B4
0.065	B5
0.08	B6
0.705	B7
